# In the supplement of paper PMC12042874:
# ± gives the uncertainty stated by the source.
# Test: amyloid nucleation score (Sup35N fusion, yeast selection) (log enrichment); library NNK1; higher = more nucleation; inactive = no reads after selection
# Method in brief: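 The nucleation score is the DiMSum log enrichment of output over input reads, centred on the mode score of non-aggregating sequences. Only sequences with 100 or more input reads were scored, using Illumina sequencing of input and output plasmid inserts. Psi-negative yeast expressing Sup35N fused to peptides of 20 random codons were induced 24 hours with 100 μM copper sulfate and grown 7 days at 30°C on medium lacking adenine and uracil.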
row,Substance,amyloid nucleation score
1,FLLCVSHLELSY,0.968 ± 0.49
2,CPGFFILVQCIVYMDTDCGF,3.81 ± 0.095
3,NYVEVINNFHAFVRVLFEIL,4.09 ± 0.15
4,DILQDFIGQPLRSN,1.04 ± 0.6
5,TDSSREGVNLHKLLFTFAMR,0.137 ± 1.1
6,NVPIPRAFRDNRTL,0.577 ± 0.5
7,SHVPEVGVGSDAVFLANKGI,-0.855 ± 0.69
8,DYSMFHTVLKVRVCNYFFVW,2.37 ± 0.24
9,IKISHACATMRQSGGFYVLK,-0.511 ± 0.39
10,CWRSVCGLLATGNQYFFGNA,4.88 ± 0.07
11,TYTVGHYVAFWSRRVKSNES,0.392 ± 0.67
12,VNMNELRNNRLSSVVFLVVG,2.09 ± 0.21
13,SLVRMLRHLRMDEKFLLIRY,0.268 ± 0.53
14,PATELLYNVCGGY,0.044 ± 0.38
15,CCYNFYDSGANCHLFFVSFR,-0.817 ± 1.7
16,QTFSNPFFVLYLSNRLIPKV,1.82 ± 0.29
17,RLYFRSSYDCDETRWKEKYM,0.049 ± 0.38
18,SIIIGMRLCHHVRSAYTNEL,3.21 ± 0.18
19,ICKDKHAIV,-0.282 ± 0.37
20,GFLICVFLSLVGYFGTCLRT,-0.554 ± 0.97
21,CIDYLRSDC,1.2 ± 0.53
22,YPAVNRWSLAVFSVRVRLAG,-0.046 ± 0.38

row,Substance,amyloid nucleation score
1,VGFNKL,0.013 ± 0.6
2,NRIFCLYSFCCFHENWVGLY,4.96 ± 0.095
3,NPDDVFMSAVWGYF,-0.127 ± 0.19
4,LVFDGNLETCRQ,0.164 ± 0.61
5,NCDKMVNMLPLRFSDIALSM,-0.566 ± 0.5
6,TYYVRCLGLLGLNPTFRSPR,0.365 ± 0.36
7,ASFYPKPS,0.4 ± 1.1
8,GVGWVDGWSGSCFHWTGWCT,3.46 ± 0.078
9,MLTNVSNICYWNDVVGDSLA,0.838 ± 0.28
10,ESSYLMNKCSSAIQDWDWGR,0.321 ± 0.4
11,RQDARE,0.004 ± 0.42
12,RFVLKYSSFFMFTIRWCVVV,-0.027 ± 0.44
13,ANLLINGFLSRSRDNYACYR,1.56 ± 0.18
14,FILCMLMVSAGLFEQEALRY,0.506 ± 0.24
15,KAQGPSFYEYRWITLNYLGY,1.07 ± 0.15
16,GVGGLWVEDSWRQRLDSEWA,-0.014 ± 0.48
17,CVAGLVDGKRKNVIRKWFWN,0.049 ± 0.44
18,PHSMYCGETWLSLDCQMQFM,-0.009 ± 0.74
19,RNHDANFPCRVDGPLQSTVR,0.135 ± 0.4
20,RVCQKCCPVVYAMNQWIFDW,7.536 ± 0.051
21,CNFLLATWRRLKYTSQYLKS,-0.073 ± 0.69
22,SPEGWYFRTTWLVA,inactive

row,Substance,amyloid nucleation score
1,TLLMRSEGYLFYYAPSLSLV,-0.494 ± 0.44
2,SETLTMFRYCISIRDKGPQG,1.24 ± 0.37
3,FESKYNTP,0.41 ± 0.47
4,RYEGKVKHYFKFKIKPMQV,0.809 ± 0.41
5,QRIVTG,-0.123 ± 0.59
6,TIFLSF,-0.284 ± 0.27
7,IEQMCTHVNYFGD,-0.548 ± 0.86
8,VGEQPYFGVFTTRYVMARYA,0.487 ± 0.71
9,PYMVSGSWPKFRT,0.041 ± 0.58
10,EVEIFILNLLFIFPNQKARW,4.17 ± 0.12
11,ALCDYWDIA,inactive
12,GSSFGFDYFDAHPMYLVTSY,1.37 ± 0.48
13,QYSRLESLLM,0.483 ± 0.39
14,VVSRIDPCTWHCAMIKGHRY,-0.332 ± 1.1
15,NWNSR,0.197 ± 0.64
16,HVKACLVVASYP,0.94 ± 0.5
17,SRWKLGGGDL,0.006 ± 0.64
18,LFLHVSMVS,-1.31 ± 1.4
19,QGSDASVGTAVGSTWEVCCC,-0.334 ± 0.36
20,LVMHVSWNVFIAVVLIFKDG,0.375 ± 0.43
21,TFNLVLGLSWNPDMFGDKGV,1.2 ± 0.41
22,NWIGS,1.44 ± 0.41

row,Substance,amyloid nucleation score
1,GLIRSSVEVMLHGVHRWDPY,0.037 ± 0.42
2,WDKADVFLDDVSASRSSLKM,3.31 ± 0.088
3,EAFYFRLRKLFDRNPGGEGT,0.621 ± 0.32
4,IELSILSGRRDL,-0.406 ± 0.2
5,KYLPPQVSSGWI,1.01 ± 0.37
6,YSVLCIMRTLHAEIWFTGGI,-0.023 ± 1.4
7,SVHSLMRDRISVPPRIVKNP,-0.008 ± 0.61
8,FWVSCRSMCEIRVSLKLRLN,0.719 ± 0.59
9,TRSLPFSIS,0.109 ± 1.4
10,IPPNSWMKSRNCTKLTARVY,-0.312 ± 1.4
11,FYGFRCGYLDVSL,-0.648 ± 0.33
12,KSCAHSYEFHHCNCAVVFTL,6.6 ± 0.051
13,NMIESIVDISTPFIHGMIND,0.295 ± 1.1
14,GDAMASFPAACCGTRCCGFV,0.41 ± 0.4
15,SACFMMGLDDWCDSR,-0.529 ± 0.35
16,YVGRNLWK,0.402 ± 0.47
17,NSCNDRFHLAMRQGF,0.067 ± 0.84
18,MYVSDCCSCICMVVDTRSIF,0.292 ± 0.39
19,MSKYALNLAMVDRGLSKDQN,-0.898 ± 1.6
20,FSAIMVRC,inactive
